Columns and labels:
Assay in all cases: pull-down; GST-MIT domain (bait) and myc-6His MIM (prey), 2 nmole each, on 20 ul glutathione sepharose in 1 ml PBS + 0.1% NP-40 + 1 mM DTT, overnight 4 C; Coomassie and anti-myc blot
Conditions in all cases: both partners purified
[1] = target: T1, GST fused to the spastin MIT domain (residues 110-199) L195V (human, UniProt Q9UBP0 110-199, L195V)
T1 construct: spastin, residues 110-199 holding the MIT domain; patient mutation; Cloned into the BamHI-XhoI sites of pGEX-4T2; source: E. coli BL21(DE3)pLysS, purified (GST sepharose, eluted with 10 mM glutathione)
T1 sequence (looked up): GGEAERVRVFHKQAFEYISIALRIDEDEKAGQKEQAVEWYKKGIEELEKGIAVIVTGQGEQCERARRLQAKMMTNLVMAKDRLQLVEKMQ

[2] = target: T2, GST fused to the spastin MIT domain (residues 110-199) V162I (human, UniProt Q9UBP0 110-199, V162I)
T2 construct: spastin, residues 110-199 holding the MIT domain; benign polymorphism; Cloned into the BamHI-XhoI sites of pGEX-4T2; also called MIT containing the benign polymorphism V162I; source: E. coli BL21(DE3)pLysS, purified (GST sepharose, eluted with 10 mM glutathione)
T2 sequence (looked up): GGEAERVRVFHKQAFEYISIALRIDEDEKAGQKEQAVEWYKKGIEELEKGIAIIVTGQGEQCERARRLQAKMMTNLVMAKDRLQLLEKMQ

[3] = target: T3, GST fused to the wild-type spastin MIT domain (residues 110-199) (human, UniProt Q9UBP0 110-199)
T3 construct: spastin, residues 110-199 holding the MIT domain; Cloned into the BamHI-XhoI sites of pGEX-4T2; also called WT; source: E. coli BL21(DE3)pLysS, purified (GST sepharose, eluted with 10 mM glutathione)
T3 sequence (looked up): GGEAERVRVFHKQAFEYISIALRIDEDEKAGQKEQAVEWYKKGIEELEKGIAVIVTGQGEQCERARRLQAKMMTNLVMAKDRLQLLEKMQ

[4] = target: T4, GST fused to the spastin MIT domain (residues 110-199) E112K (human, UniProt Q9UBP0 110-199, E112K)
T4 construct: spastin, residues 110-199 holding the MIT domain; patient mutation; Cloned into the BamHI-XhoI sites of pGEX-4T2; source: E. coli BL21(DE3)pLysS, purified (GST sepharose, eluted with 10 mM glutathione)
T4 sequence (looked up): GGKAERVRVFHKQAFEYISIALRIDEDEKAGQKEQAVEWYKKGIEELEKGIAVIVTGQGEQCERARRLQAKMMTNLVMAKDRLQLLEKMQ

[5] = target: T5, GST fused to the spastin MIT domain (residues 110-199) R115C (human, UniProt Q9UBP0 110-199, R115C)
T5 construct: spastin, residues 110-199 holding the MIT domain; patient mutation (SPAST c.343C>T); Cloned into the BamHI-XhoI sites of pGEX-4T2; source: E. coli BL21(DE3)pLysS, purified (GST sepharose, eluted with 10 mM glutathione)
T5 sequence (looked up): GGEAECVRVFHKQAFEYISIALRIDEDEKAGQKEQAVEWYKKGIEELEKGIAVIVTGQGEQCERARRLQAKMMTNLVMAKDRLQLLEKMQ

[6] = target: T6, GST fused to the spastin MIT domain (residues 110-199) N184T (human, UniProt Q9UBP0 110-199, N184T)
T6 construct: spastin, residues 110-199 holding the MIT domain; patient mutation; Cloned into the BamHI-XhoI sites of pGEX-4T2; source: E. coli BL21(DE3)pLysS, purified (GST sepharose, eluted with 10 mM glutathione)
T6 sequence (looked up): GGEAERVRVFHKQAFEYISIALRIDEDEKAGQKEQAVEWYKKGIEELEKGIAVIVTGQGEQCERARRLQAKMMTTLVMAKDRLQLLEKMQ

Measured: binding result

B1: single MIM of CHMP1B, residues 174-199, myc- and 6His-tagged (domain or fragment, UniProt Q7LBR1 174-199, looked up)
chain: GSVGTSVASAEQDELSQRLARLRDQV
notes: CHMP1B, residues 174-199 holding the single MIM; Cloned into the BamHI-NotI sites of pGEX-6P-1; also called CHMP1B MIM; CHMP1B (amino acids 174-199); source: E. coli BL21(DE3)pLysS, purified (GST sepharose, GST removed with Prescission protease)
binds: all assays above

From publication PMC6856053 (Frontiers in Neuroscience, 2019)
